Experimental data published in patent publication US12605458B2, “Antibody-drug conjugate having acidic self-stabilization junction” (priority 2017, dated 2026).

Experiments:
[1] = Plasma stability in vitro (DAR by RP-HPLC after incubation in human plasma); type: in vitro ADME; settings: 37° C.
Procedure: A fixed amount of ADC sample was added to human plasma for which human IgG had already been removed, with each ADC tube prepared in triplicate; next, incubation in a 37° C. water bath was performed for 0 hours and 72 hours, after which the ADC sample was removed and 100 μl of Protein A (MabSelect SuRe™ LX Lot: #10221479GE, washed with PBS) was added to each tube; adsorption was then allowed to proceed under agitation on a vertical mixer for two hours, followed by washing and elution to obtain incubated ADC; the plasma stability of each incubated ADC sample was then determined via RP-HPLC.

[2] = SEC-HPLC detection of degree of aggregation; type: physicochemical; settings: 280 nm
Procedure: ADC samples obtained via conjugation were centrifuged at 14,000 rpm for five minutes and the supernatant was taken for analysis. Instrument: Waters e2695 (2489UV/Vis) Chromatography column: TSKgel G3000SWXL (7.8×300 mm, 5 μm) Mobile phase: A: 50 mM PB, 300 mM NaCl, 200 mM Arg, 5% IPA, pH 6.5 Mobile Phase A was eluted isocratically for 30 minutes; flow rate: 0.714 ml/min, column temperature: 25° C., detection wavelength: 280 nm.

[3] = Hydrophobic interaction chromatography (HIC) assay; type: physicochemical; settings: eight drug units per antibody, FIG. 4
Procedure: ADC analysis was performed using hydrophobic interaction chromatography (HIC). Elution was performed using 0 to 100% Mobile Phase B (MPB), where Mobile Phase A (MPA) consisted of 1.5 M ammonium sulfate and 0.025 M sodium phosphate, and MPB consisted of 0.025 M sodium phosphate and 25% isopropanol. The sample loading volume was approximately 20 μg, and gradient elution was completed in 15 minutes. 280 nm UV was used for detection, and the stronger the […] sample, the later the peak produced.
Following complete reduction of IgG1 antibody to 8 thiols per antibody according to General Procedure A, corresponding antibody-drug conjugates were prepared via non-specific coupling. ADCs with acidic stabilization junctions and conventional junctions ADC (i.e., MC-VC-PAB-MMAE) with eight drug units per antibody were further separated and purified via hydrophobic interaction chromatography and hydrophobic interaction chromatography (HIC) was used to perform an ADC analysis according to General Procedure C. ADCs with greater hydrophobicity, or larger drug/molecule ratios eluted at later retention times.

Substance: MC-VC-PAB-MMAE
- 0 h DAR ([1]; human plasma with human IgG removed, 0 hours, RP-HPLC): 7.2
- 72 h DAR ([1]; human plasma with human IgG removed, 72 hours, RP-HPLC): 2.3
- drug loss / change in DAR during plasma incubation (in words) ([1]; human plasma, 72 hours): very significant reduction in DAR
- Aggregation Rate [2]: 32.46%
- Monomer Ratio [2]: 67.51%
- HIC retention time (hydrophobicity, in words) [3]: longest retention time
